Measurements from patent US20070026059A1, “Ligands for orphan nuclear hormone receptor steroidogenic factor-1 (SF-1)” (priority 2005, published 2007).
Ends that are not written are not given here. * marks the point of attachment. Biotin = O=C1N[C@H]2[C@H](CS[C@H]2CCCCC(=O)*)N1

How the values were obtained:
SF-1 LBD = molecular target: T1, SF-1 LBD (Mus musculus, UniProt P33242); test: AlphaScreen binding of LxxLL / co-repressor motif peptides to purified SF-1 LBD; conditions: FIG. 1A
T1 construct: The mouse SF1 LBD (residues 221-462) was expressed as a 6×His fusion protein; made in house; host or cells: E. coli BL21 (DE3), pET24a
Procedure: A. Binding of various LxxLL motifs to the purified SF-1 LBD as measured by AlphaScreen™ assays. The background reading of either SF-1 or the peptides alone is less than 200. The peptide sequences are listed in experimental procedures. The results are the average of three experiments (error bars=standard deviation).
(§1) All phospholipids were purchased from Sigma and stored according to the manufacturer's instructions. The binding of the various peptide motifs to SF-1 was determined by AlphaScreen™ assays from Perkins-Elmer as described recently for other nuclear receptors (Xu et al., 2002). Wild type SF-1 and the mutated LBDs were purified as 6×His tag fusion proteins for the assays. The experiments were conducted with approximately 20-30 nM receptor LBD and 20 nM of biotinylated TIF2 peptide or other co-activator peptides in the presence of 5 μg/ml donor and acceptor beads in a buffer containing 50 mM MOPS, 50 mM NaF, 0.05 mM CHAPS, and 0.1 mg/ml bovine serum albumin, all adjusted to pH 7.4. An AlphaScreen kit for detection of hexa-His was used in this experiment and the binding signals for the TIF2/SF-1 interaction were detected in the absence or the presence of exogenous phospholipids. EC50/IC50 values for the effects of phospholipids on TIF2 binding to SF-1 were determined from a nonlinear least square fit of the data based on an average of three repeated experiments with standard errors typically less than 10% of measurements.
The peptides with an N-terminal biotinylation are listed below.

[1] = tested on: mutated SF-1 LBD (pocket residue to tryptophan mutants); test: AlphaScreen assay: effect of 12PE on restoring co-activator binding of mutated SF-1 receptors; assay type: biochemical, mouse; conditions: 12PE 1.25 μM, FIG. 6E
Procedure: E. Effects of 12PE (1.25 μM) on restoring TIF2 binding activity of mutated SF-1 receptors.
as §1, with “EC50/IC50 values for the effects of phospholipids on TIF2 binding to SF-1 were determined from a nonlinear least square fit of the data based on an average of three repeated experiments with standard errors typically less than 10% of measurements.” left out
The SF-1 pocket comprises 51 residues that form intimate contacts with the bound phospholipid ligand. […] All mutated receptors expressed well and were readily purified for AlphaScreen assays that measure SF-1 recruitment of three different co-activator motifs that show interactions with SF-1 in FIG. 1A.

[2] = molecular target: T2, SF-1 LBD / TIF2 co-activator motif interaction (Mus musculus, UniProt P33242); test: AlphaScreen assay of SF-1 binding to TIF2 co-activator LxxLL motif in absence or presence of phospholipids; assay type: biochemical; conditions: for EC50: in the presence of 10% ethanol, FIG. 5E, read-out: potency (EC50) for recovering the SF-1/TIF2 binding activity
T2 construct: The mouse SF1 LBD (residues 221-462) was expressed as a 6×His fusion protein; made in house; host or cells: E. coli BL21 (DE3), pET24a
Procedure: The mouse SF1 LBD (residues 221-462) was expressed as a 6×His fusion protein from the expression vector pET24a (Novagen). BL21 (DE3) cells transformed with this expression plasmid were grown in LB broth at 16° C. to an OD600 of ˜1.0 and induced with 0.1 mM isopropylthio-β-D-galactoside (IPTG) for 16 hours. Cells were harvested, resuspended in 400 ml extract buffer (20 mM Tris pH8.0, 150 mM NaCl, 10% glycerol) per 6 l. of cells, and passed 3 times through a French Press with pressure set at 1000 pa. The lysate was centrifuged at 20,000 rpm for 30 minutes and the supernatant was loaded onto a 50 ml Ni-NTA column (Qiagen). The column was washed with extract buffer and the protein eluted with 300 ml gradient to buffer B (10 mM Tris, PH8.0, 150 mM NaCl, 10% glycerol and 500 mM imidazole). The protein was further purified with a Q-Sepharose column (Amersham Biosciences). A typical yield of the purified protein was about 100 mg from each liter of cells. To prepare the protein-cofactor complex, we added a 2-fold excess of the SHP peptide ([…]; SEQ ID NO:1) to the purified protein, followed by filter concentration to 15 mg/ml.
as §1

T2 sequence (P33242 221-462): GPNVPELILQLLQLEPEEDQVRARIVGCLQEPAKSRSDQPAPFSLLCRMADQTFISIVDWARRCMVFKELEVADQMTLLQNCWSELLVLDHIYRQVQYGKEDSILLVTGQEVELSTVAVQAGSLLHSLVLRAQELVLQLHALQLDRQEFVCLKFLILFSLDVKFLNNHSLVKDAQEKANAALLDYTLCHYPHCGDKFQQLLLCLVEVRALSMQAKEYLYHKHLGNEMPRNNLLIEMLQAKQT
T1 sequence (P33242 221-462): as above

Compound: N-COR: N-terminally biotinylated co-repressor motif peptide GHSFADPASNLGLEDIIRKALMGSF (SEQ ID NO:9)
- interaction of peptide motif with purified SF-1 (SF-1 LBD): did not interact

Compound: second SHP LxxLL motif: N-terminally biotinylated peptide VABAPVPSILKKILLEEPNS (SEQ ID NO:6)
- interaction of peptide motif with purified SF-1 (SF-1 LBD): not

Compound: CCCCCCCCCCCC(=O)OC[C@H](COP(=O)(O)OCCN)OC(=O)CCCCCCCCCCC [12PE, 1,2-Didodecanoyl-sn-glycero-3-phosphoethanolamine]
- restoration of co-activator binding of SF-1 mutants A270W, L266W and L348W [1]: completely restored
- restoration of co-activator binding of SF-1 mutants L345W, V349W and A434W [1]: cannot be restored
- EC50 [2]: 66 nM

Compound: SMRT: N-terminally biotinylated co-repressor motif peptide QAVQEHASASTNMGLEAIIRKALMGKY (SEQ ID NO:10) (Biotin-QAVQEHASASTNMGLEAIIRKALMGKY; listed as Mus musculus)
- interaction of peptide motif with purified SF-1 (SF-1 LBD): did not interact

Compound: CCCCC/C=C\C/C=C\CCCCCCCC(=O)OC[C@H](COP(=O)([O-])OCC[N+](C)(C)C)OC(=O)CCCCCCC/C=C\C/C=C\CCCCC [18PCD, 1,2-dilinoleonyl-sn-glycerol-3-phosphocholine]
- effect on high basal SF-1/TIF2 interaction ([2]; absence of ethanol, FIG. 5D): disrupted the high basal interactions of SF-1 with TIF2 in a dose dependent manner
- IC50 ([2]; absence of ethanol, high basal interaction, FIG. 5D, read-out: IC50 for inhibiting the SF-1/TIF2 interactions): 100 to 300 nM

Compound: CCCCCCCCCCCCCCCC(=O)OC[C@H](COP(=O)([O-])OCC[N+](C)(C)C)OC(=O)CCCCCCCCCCCCCCC [16PC, 1,2-dihexadecanoyl-sn-glycero-3-phosphocholine]
- EC50 [2]: 80 to 120 nM

Compound: SRC-1 second LxxLL motif: N-terminally biotinylated peptide SPSSHSSLTERHKILHRLLQEGSP (SEQ ID NO:3) (Biotin-SPSSHSSLTERHKILHRLLQEGSP; listed as Mus musculus)
- interaction of peptide motif with purified SF-1 (SF-1 LBD): able to interact

Compound: TIF2 peptide: N-terminally biotinylated peptide QEPVSPKKKENALLRYLLDKDDTKD (SEQ ID NO:2), third LxxLL motif of co-activator TIF2
- AlphaScreen signal on incubation of SF-1 with peptide (SF-1 LBD; background of SF-1 or peptide alone less than 200): ~45,000 photo counts

Compound: SRC-1 fourth LxxLL motif: N-terminally biotinylated peptide QKPTSGPQTPQAQQKSLLQQLLTE (SEQ ID NO:4) (Biotin-QKPTSGPQTPQAQQKSLLQQLLTE; listed as Mus musculus)
- interaction of peptide motif with purified SF-1 (SF-1 LBD): able to interact

Compound: CBP: N-terminally biotinylated peptide SGNLVPDAASKHKQLSELLRGGSG (SEQ ID NO:8) (Biotin-SGNLVPDAASKHKQLSELLRGGSG; listed as Mus musculus)
- interaction of peptide motif with purified SF-1 (SF-1 LBD): not

Compound: TRAP220: N-terminally biotinylated peptide GHGEDFSKVSQNPILTSLLQITGN (SEQ ID NO:7) (Biotin-GHGEDFSKVSQNPILTSLLQITGN; listed as Mus musculus)
- interaction of peptide motif with purified SF-1 (SF-1 LBD): not

Compound: CCCCCCCCCCCCCC(=O)OC[C@H](COP(=O)(O)OCCN)OC(=O)CCCCCCCCCCCCC [14PE, 1,2-dimyristoyl-sn-glycero-3-phosphoethanolamine]
- EC50 [2]: 64 nM

Compound: first LxxLL motif of SHP: N-terminally biotinylated peptide PCQGSASHPTILYTLLSPGP (SEQ ID NO:5) (Biotin-PCQGSASHPTILYTLLSPGP; listed as Mus musculus)
- interaction of peptide motif with purified SF-1 (SF-1 LBD): able to interact

Compound: CCO [ethanol]
- loss of the SF-1/TIF2 binding activity ([2]; 10% ethanol added to the binding buffer): > 90%
